Test results from US20210145921A1, “COMPOSITION COMPRISING VEGF ANTAGONISTS AND A CATIONIC PEPTIDE AND USES THEREOF” (UCL BUSINESS LTD, priority 2017, published 2021).

Key:
[1] = test system: HCE-S corneal epithelial barrier; assay: in vitro HCE-S transwell transcytosis assay (Papp); format: in vitro ADME, human; details: for enhancement of delivery of Lucentis across the HCE-S barrier: Papp
Experimental: HCE-S barrier models for transcytosis assays were prepared using an adaptation of a previously described method.^[1] HCE-S cells (5×10^4 cells/well) were seeded on transwell inserts (poly-carbonate, 3 μm pore size, 1.13 cm^2) and maintained for 7 days refreshing the medium in the apical and basal chambers every second day. After this time cells were cultured for a further 10 days at an apical air interface to encourage development of a multilayer barrier. Prior to each experiment culture medium was replaced with phenol red free DMEM and barrier integrity measured via transepithelial resistance (TER). TER values were obtained in the range 300-600 Ωcm^2 and only epithelial barriers with TERs>300 Ω·cm^2, the accepted threshold for tight epithelial barriers, were used for transcytosis experiments.
Permeation studies were conducted to determine the rate of anti-VEGF transcytosis in the presence/absence of varying concentrations of R8. Experiments were initiated by adding 1.5 ml serum- and phenol red-free DMEM to the basal chamber and 0.5 ml to the apical chamber containing 0.1 mg/mL Avastin or Lucentis in the presence of varying molar ratios of R8. After 3 h, 100 μl of medium was withdrawn from the basal chamber and the concentration of anti-VEGF in the basal chamber was determined using established and commercially available sandwich ELISA techniques (KPL Protein Detector HRP Microwell Kit, Anti-Human Cat #54-62-10 with Jackson Immuno Research AffiniPure Rabbit Anti-Human IgG capture antibody).^[1] […] The permeability coefficient (Papp) of each anti-VEGF was determined as previously described^[1] using equation 1;
where CR is the final concentration of anti-VEGF recovered from the ELISA assay, CD is the initial concentration of anti-VEGFs added to the assay, tmin is the transcytosis time (180 min), VR is the volume of the receiving chamber (1.5 ml) and A represents the filter area (1.12 cm^2).
Lucentis (+/−Steryl-R8) were applied to the Apical chamber and the concentration crossing the barrier was determined from the basolateral chamber at different timepoints using a Lucentis sandwich ELISA. Intact HCE-S barrier was confirmed by measuring transepithelial resistance (>[…]) before each assay.

HCE-S cells = assay: AlamarBlue cell viability assay; format: cell-based, human; details: 24 h exposure, up to 200/1 molar ratio
Experimental: HCE-S monolayers for uptake assays were prepared by seeding 96 well plates with 1×10^4 cells/well and maintaining for 5 days replacing the medium every other day. After this time, medium was replaced with that containing 100 μM calcein loaded PLVs in the presence or absence of 200 nM AnxA5. Cells were incubated with PLVs at 37° C. for 3 h protected from light. Epithelial monolayers were then washed three times in ice cold PBS (with calcium and magnesium) to remove free PLVs, followed by a single wash in ice cold isosmotic citrate buffer (pH 3) to remove surface bound PLVs before applying a PBS wash containing 1% Triton X-100 to solubilise membranes. Upon completion of each washing step, calcein fluorescence was measured using a 485 nm excitation and 515 nm emission with a SAFIRE micro plate reader (TECAN) HCE-S monolayers for viability assays were prepared by seeding 96 well plates with 1×10^4 cells/well and maintaining for 24 h at 37° C. in a humidified incubator with 5% CO2. […] Cells were incubated with anti-VEGF/R8 solutions for 24 h before viability of HCE-S cells in response to was assessed using the AlamarBlue (Invitrogen) cell viability assay according to manufacturers instructions. […]

[2] = dextran transcytosis assay; format: in vitro ADME
Excerpt: The fifth experiment conducted was whether R8 affected the transport of dextrans across a membrane, FIG. 27. Dextrans are complex branched polysaccharides made of many glucose molecules. They can be composed of chains of varying lengths.

[3] = in vivo rabbit study, topical instillation, anti-VEGF in eye tissue by sandwich ELISA; set-up: species or system New Zealand rabbits
Experimental: All animal experiments were performed in compliance with the ARVO Statement for the Use of Animals in Ophthalmic and Vision Research. New Zealand rabbits received unilateral topical instillations of 0.03 mL anti-VEGF in the presence of R8 (varying molar concentrations) either as a liquid or hydrogel formulations without anaesthesia. At the specified time after application animals were euthanized before enucleation, washing (PBS) and snap-freezing and dissection of ocular tissues. Samples were weighed and cryohomogenised before the concentration of anti-VEGF per gram of eye tissue determined using established sandwich ELISA protocols.

[4] = test system: human umbilical vein endothelial cell (HUVEC); details: cited from earlier work
rhVEGF165 = details: read-out: IC50, tissue factor up-regulation; cited from earlier work
[5] = human, in vivo; cited from earlier work
[6] = in vivo; cited from earlier work

## N=C(N)NCCC[C@H](NC(=O)[C@H](CCCNC(=N)N)NC(=O)[C@H](CCCNC(=N)N)NC(=O)[C@H](CCCNC(=N)N)NC(=O)[C@H](CCCNC(=N)N)NC(=O)[C@H](CCCNC(=N)N)NC(=O)[C@H](CCCNC(=N)N)NC(=O)[C@@H](N)CCCNC(=N)N)C(=O)O [R8, RRRRRRRR]
[1]
  transcytosis of Lucentis, peptide alone without liposomes: dramatic enhancement in transcytosis
  enhancement of delivery of Lucentis across the HCE-S barrier: concentration dependent manner
HCE-S cells
  toxicity to HCE-S cells: non-toxic
[2]
  effect on transport of different sizes of dextran across a membrane: made no difference

## CCCCCCCCCCCCCCCCCC(=O)N[C@@H](CCCNC(=N)N)C(=O)N[C@@H](CCCNC(=N)N)C(=O)N[C@@H](CCCNC(=N)N)C(=O)N[C@@H](CCCNC(=N)N)C(=O)N[C@@H](CCCNC(=N)N)C(=O)N[C@@H](CCCNC(=N)N)C(=O)N[C@@H](CCCNC(=N)N)C(=O)N[C@@H](CCCNC(=N)N)C(=O)O [ST-R8, Stearyl-R8]
[1]
  transcytosis of anti-VEGF (Lucentis) loaded liposomes: significantly enhanced
  enhancement of delivery of Lucentis across the HCE-S barrier: concentration dependent manner

## Bevacizumab [Avastin]
[1]
  transport across the HCE-S barrier in the presence of R8 (ST-R8): aided the transport

## Ranibizumab [Lucentis]
[1]
  transport across the HCE-S barrier in the presence of R8 (ST-R8): aided the transport
[3]; 2 h after topical instillation
  free Lucentis detected in retina: ~20 ng
[3]; free Lucentis, topical instillation, 2 h
  concentration detected in plasma: < 0.1 ng/mL
[3]; from dosed eye versus co-eye concentration, n=10
  proportion of dosed free Lucentis reaching the retina by the topical route: ~30%
[3]; liquid formulation, 2 h, n=3
  Lucentis delivery to the retina: 18 ± 8 ng/g
[3]; rabbit, one eye dosed, 2 hours after topical application
  levels of Lucentis in the vitreous and retina/choroid: 10 ng/g tissue
[4]
  concentration giving total inhibition of proliferation: ≥ 1.3 nM
[4]; read-out: IC50, VEGF-induced proliferation
  IC50: < 1 nM
rhVEGF165
  IC50: 0.31 nM
[5]
  clinical Cmax predicted at steady state: 1.7 ng/mL
  clinical Cmax, maximal individual level: 2.4 ng/mL
[6]
  half-life in the eye: 173 h
